Values of other authors in US20050176623A1, “Non-invasive treatment of disease using amphipathic compounds” (priority 2004, published 2005).

Details: fractional catabolic rate, kidney

apolipoprotein A-I [apoA-I]
normal clearance of apoA-I: approximately 0.3 pools/day
